From US20170319722A1

Tests used:
[1] = target: His-tagged CD8α human recombinant protein (TP760215, Origene) (human) (UniProt P01732); assay: sandwich ELISA; biotinylated ligand on NeutrAvidin plate, His-tagged CD8α titrated, anti-His-AP detection
[2] = target: CD8 on human peripheral blood mononuclear cells (PBMCs) (human) (UniProt P01732); assay: flow cytometry, human PBMCs, co-stained with CD3-APC mAb
CD8 on human peripheral blood mononuclear cells (PBMCs) (human), sequence (P01732 22-235): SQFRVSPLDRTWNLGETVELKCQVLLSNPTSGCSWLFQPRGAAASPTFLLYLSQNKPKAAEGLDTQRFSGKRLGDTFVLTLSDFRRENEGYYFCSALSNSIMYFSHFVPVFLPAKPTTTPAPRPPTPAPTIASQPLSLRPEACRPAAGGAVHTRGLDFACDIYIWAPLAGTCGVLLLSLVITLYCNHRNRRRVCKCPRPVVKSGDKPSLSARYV

His-tagged CD8α human recombinant protein (TP760215, Origene) (human), sequence (P01732 22-182 limits assumed): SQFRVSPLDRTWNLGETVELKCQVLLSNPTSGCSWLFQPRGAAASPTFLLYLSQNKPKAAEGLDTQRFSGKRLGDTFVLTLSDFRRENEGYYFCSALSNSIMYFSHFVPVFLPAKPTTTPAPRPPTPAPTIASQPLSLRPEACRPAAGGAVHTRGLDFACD

| Substance | EC50 [1] | % of cells detected (Q2) [2] | % of cells detected (Q4) [2] |
| --- | --- | --- | --- |
| biotin-PEG3-Cy(slrfG) (peptide) | 20 nM |  |  |
| biotin-PEG3-Cy(yGGvr) (peptide) | 10 nM |  |  |
| human CD8-FITC mAb (clone: RPA-T8) (#561947, BD Biosciences) (antibody) |  | 11.2% | 2.1% |
